According to US6429304 (University of California, dated 2002):

Molecular target: T1, p80 delta 560-690 (S. purpuratus p80 katanin lacking the C-terminal 130 amino acids), in vitro translated … (Strongylocentrotus purpuratus, UniProt O61585 1-559)
T1 construct: The residues kept are derived from the deletion named; also called delta 560-690 derivative of p80; not shown: 37 amino acid N-terminal S-Tag from pCITE-4a+ (Novagen)
T1 sequence: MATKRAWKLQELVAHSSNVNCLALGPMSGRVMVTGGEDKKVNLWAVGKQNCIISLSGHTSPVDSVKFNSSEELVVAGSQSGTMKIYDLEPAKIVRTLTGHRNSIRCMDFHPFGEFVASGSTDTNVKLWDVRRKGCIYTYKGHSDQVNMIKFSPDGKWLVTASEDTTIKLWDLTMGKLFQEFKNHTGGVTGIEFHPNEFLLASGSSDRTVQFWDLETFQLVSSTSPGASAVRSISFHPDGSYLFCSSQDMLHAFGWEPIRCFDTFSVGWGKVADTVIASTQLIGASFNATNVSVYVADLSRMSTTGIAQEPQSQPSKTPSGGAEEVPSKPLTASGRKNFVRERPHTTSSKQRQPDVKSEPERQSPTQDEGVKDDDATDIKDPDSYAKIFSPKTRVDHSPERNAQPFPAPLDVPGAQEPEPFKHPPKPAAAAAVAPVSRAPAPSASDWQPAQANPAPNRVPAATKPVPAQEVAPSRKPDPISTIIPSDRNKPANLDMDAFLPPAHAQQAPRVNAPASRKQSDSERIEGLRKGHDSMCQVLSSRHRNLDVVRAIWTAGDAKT
Assay: co-translation in rabbit reticulocyte lysate, immunoprecipitation with anti-p60 antibody
Experimental: In vitro synthesis of proteins directly from plasmid DNAs was accomplished using the Single Tube Protein System 2, T7 (Novagen). […] For immunoprecipitations, lysates were incubated on ice with Pansorbin (Calbiochem)-antibody complexes, washed in NET buffer (50 mM Tris-Cl (pH 7.5), 150 mM NaCl, 0.1% Nonidet P40, 1 mM EDTA (pH 8.0), 0.25% gelatin and 0.02% sodium azide), then resuspended in SDS-PAGE sample buffer. In vitro translation products in both the pellets and supernatants from the immunoprecipitations were resolved by SDS-PAGE, transferred to nitrocellulose, probed with S-protein HRP conjugate (Novagen) and detected by chemiluminescence.

binding result: no binding
B1: in vitro translated S. purpuratus p60 katanin with 37 amino acid N-terminal S-Tag (enzyme)
chain: MSVDEICENTKMGREYALLGNYETSLVYYQGVLQQIQKLLTSVHEPQRKHQWQTIRQELSQEYEHVKNITKTLNGFKSEPAAPEPAPNHRAAPFSHHQHAAKPAAAEPARDPDVWPPPTPVDHRPSPPYQRAARKDPPRRSEPSKPANRAPGNDRGGRGPSDRRGDARSGGGGRGGARGSDKDKNRGGKSDKDKKAPSGEEGDEKKFDPAGYDKDLVENLERDIVQRNPNVHWADIAGLTEAKRLLEEAVVLPLWMPDYFKGIRRPWKGVLMVGPPGTGKTMLAKAVATECGTTFFNVSSASLTSKYHGESEKLVRLLFEMARFYAPSTIFIDEIDSICSKRGTGSEHEASRRVKSELLIQMDGVSGPSAGEESSKMVMVLAATNFPWDIDEALRRRLEKRIYIPLPEIDGREQLLRINLKEVPLADDIDLKSIAEKMDGYSGADITNVCRDASMMAMRRRIQGLRPEEIRHIPKEELNQPSTPADFLLALQKVSKSVGKEDLVKYMAWMEEFGSV
notes: Made in a rabbit reticulocyte coupled transcription-translation reaction; not shown: 37 amino acid N-terminal S-Tag from pCITE-4a+ (Novagen)
